Source: publication PMC3936261 (Oncogene, 2013)
Read-outs that look alike come from different tables or passages of the source.

What was measured:
Experiment in all cases: other fluorescence titration
[1] = molecular target: T1, PTEN protein labeled with QSY 35 (UniProt P60484 1-403, QSY 35 (label as for the MKP proteins))
[2] = molecular target: T1, PTEN protein labeled with QSY 35; remark: listed apart in the source
[3] = molecular target: T1, PTEN protein labeled with QSY 35; remark: listed apart in the source

T1 sequence (P60484 whole entry): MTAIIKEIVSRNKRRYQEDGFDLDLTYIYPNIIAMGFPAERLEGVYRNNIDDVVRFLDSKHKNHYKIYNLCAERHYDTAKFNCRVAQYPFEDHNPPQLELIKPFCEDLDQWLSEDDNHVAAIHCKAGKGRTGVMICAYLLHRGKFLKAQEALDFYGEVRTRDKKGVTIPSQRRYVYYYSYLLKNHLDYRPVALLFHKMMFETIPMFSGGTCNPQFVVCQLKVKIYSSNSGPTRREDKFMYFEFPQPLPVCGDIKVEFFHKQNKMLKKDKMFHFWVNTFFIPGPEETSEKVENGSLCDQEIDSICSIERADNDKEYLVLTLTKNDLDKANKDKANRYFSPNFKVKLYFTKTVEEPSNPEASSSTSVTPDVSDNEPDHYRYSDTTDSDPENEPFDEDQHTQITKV

Kd [1]: 220 ± 22.5 nM
Kd [2]: 247 nM
Kd [3]: 215 ± 19.5 nM
B1: Prdx1 protein labeled with Alexa Fluor 546 (enzyme, UniProt Q06830 1-199, looked up)
chain: MSSGNAKIGHPAPNFKATAVMPDGQFKDISLSDYKGKYVVFFFYPLDFTFVCPTEIIAFSDRAEEFKKLNCQVIGASVDSHFCHLAWVNTPKKQGGLGPMNIPLVSDPKRTIAQDYGVLKADEGISFRGLFIIDDKGILRQITVNDLPVGRSVDETLRLVQAFQFTDKHGEVCPAGWKPGSDTIKPDVQKSKEYFSKQK
modifications: Alexa Fluor 546 on primary amines (succinimidylester of Alexa Fluor 546 carboxylic acid)
